Reference: paper PMC8278322 (Cancer research, 2020)

Target: T1, Gal4-fused SMAD4 (UniProt Q13485 1-552)
T1 sequence (looked up): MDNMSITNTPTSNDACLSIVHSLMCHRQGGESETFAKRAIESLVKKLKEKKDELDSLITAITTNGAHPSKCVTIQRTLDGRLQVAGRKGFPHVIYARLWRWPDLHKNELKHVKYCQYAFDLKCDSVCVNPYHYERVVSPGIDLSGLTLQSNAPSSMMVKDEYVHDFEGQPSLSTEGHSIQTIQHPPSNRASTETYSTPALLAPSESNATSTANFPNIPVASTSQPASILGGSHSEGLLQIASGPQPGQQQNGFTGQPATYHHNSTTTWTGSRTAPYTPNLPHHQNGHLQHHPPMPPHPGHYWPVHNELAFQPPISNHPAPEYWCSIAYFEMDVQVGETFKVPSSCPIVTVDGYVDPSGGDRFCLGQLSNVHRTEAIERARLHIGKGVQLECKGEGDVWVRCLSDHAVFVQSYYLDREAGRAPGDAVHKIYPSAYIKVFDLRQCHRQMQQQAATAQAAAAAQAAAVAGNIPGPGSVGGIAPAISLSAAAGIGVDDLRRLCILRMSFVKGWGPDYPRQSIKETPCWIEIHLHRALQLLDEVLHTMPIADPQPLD
Assay: two-hybrid

- fold luciferase activity against pVP16-fused wildtype FOXL2: ~20 fold
B1: pVP16-fused FOXL2^C134W (natural protein, human, UniProt P58012 1-376, looked up)
chain: MMASYPEPEDAAGALLAPETGRTVKEPEGPPPSPGKGGGGGGGTAPEKPDPAQKPPYSYVALIAMAIRESAEKRLTLSGIYQYIIAKFPFYEKNKKGWQNSIRHNLSLNECFIKVPREGGGERKGNYWTLDPAWEDMFEKGNYRRRRRMKRPFRPPPAHFQPGKGLFGAGGAAGGCGVAGAGADGYGYLAPPKYLQSGFLNNSWPLPQPPSPMPYASCQMAAAAAAAAAAAAAAGPGSPGAAAVVKGLAGPAASYGPYTRVQSMALPPGVVNSYNGLGGPPAAPPPPPHPHPHPHAHHLHAAAAPPPAPPHHGAAAPPPGQLSPASPATAAPPAPAPTSAPGLQFACARQPELAMMHCSYWDHDSKTGALHSRLDL
